Drawing on patent publication US20140112926A1, this text covers % inhibition and Alpha signal for 35 substances.

Experiment [1] deals with GST-tagged version of human FcγRIIIA (human) (UniProt P08637). The experiment in a line: AlphaLISA vs biotin-huIgG, supernatant, round 1. (In general: Bead proximity is the source of the signal in Alpha formats.)
For experiment [2] the target is unchanged. The experiment in a line: AlphaLISA vs biotin-huIgG, supernatant, round 2.
Experiment [3] shares this target. The experiment in a line: AlphaLISA vs biotin-huIgG, supernatant, round 3.

GST-tagged version of human FcγRIIIA (human), sequence (P08637 17-208 limits assumed): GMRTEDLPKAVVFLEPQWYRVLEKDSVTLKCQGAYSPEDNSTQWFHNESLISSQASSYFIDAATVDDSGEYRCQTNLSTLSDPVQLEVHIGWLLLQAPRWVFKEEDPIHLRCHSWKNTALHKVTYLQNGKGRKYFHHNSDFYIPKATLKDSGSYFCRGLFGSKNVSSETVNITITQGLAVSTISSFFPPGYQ

For orientation: % inhibition means how much of the control response was suppressed. In the case of “scFv-Fc/Fc, L235S in scFv-Fc (Fc fusion)”, the % inhibition in experiment [1] is 89.8%; in experiment [2] it was 92.2%; in experiment [3] it was 91.1%. Also, the Alpha signal in experiment [1] turned out to be 7790; in experiment [2], 6260; in experiment [3], 7020.

With “scFv-Fc/Fc, E294L in scFv-Fc (Fc fusion)”, the Alpha signal was found to be 24300 in experiment [1], 22900 in experiment [2] and 18200 in experiment [3]. The % inhibition in experiment [3] was 76.8%.

In the case of “scFv-Fc/Fc, L309K in scFv-Fc (Fc fusion)”, the results for the % inhibition in experiment [1], in experiment [2] and in experiment [3] were 69.2%, 76.5% and 65.4%, respectively. For the same substance, the Alpha signal in experiment [1] is 23400; in experiment [2], 18900; in experiment [3] it was 27200.

For the substance “scFv-Fc/Fc, S239E in dummy Fc (Fc fusion)”, the Alpha signal was 32500 in experiment [1], 34800 in experiment [2] and 33700 in experiment [3].

As for “scFv-Fc/Fc, F243I in dummy Fc (Fc fusion)”, the % inhibition in experiment [1] was 60.8%. The Alpha signal in experiment [1] was found to be 29800; in experiment [2] it was 25800; in experiment [3] it was 23800.

Turning to “scFv-Fc/Fc, T307S in scFv-Fc (Fc fusion)”, the % inhibition in experiment [1] came out at 41.3%; in experiment [2], 42.1%; in experiment [3], 34.6%. Moreover, the Alpha signal in experiment [3] came out at 51400.

Turning to “scFv-Fc/Fc, K334L in dummy Fc (Fc fusion)”, the % inhibition in experiment [1] was 64.9%; in experiment [2], 70.9%; in experiment [3], 68.1%. Further, the figures for the Alpha signal in experiment [1], in experiment [2] and in experiment [3] were 26700, 23400 and 25100, respectively.

“scFv-Fc/Fc, K290S in scFv-Fc (from UniProt P0DOX5 218-449; P0DOX5 218-449) (Fc fusion)” had a % inhibition in experiment [1] of 24.8%. Moreover, the Alpha signal was determined as 57100 in experiment [1], 55900 in experiment [2] and 54600 in experiment [3].

On to “scFv-Fc/Fc, F243V + S239T in dummy Fc (Fc fusion)”, for which the % inhibition in experiment [1] is 84.8%; in experiment [2], 83%; in experiment [3], 84.1%. The values for the Alpha signal in experiment [1], in experiment [2] and in experiment [3] were 11600, 13700 and 12500, respectively.

“scFv-Fc/Fc, T307P in dummy Fc (Fc fusion)”: the results for the % inhibition in experiment [1], in experiment [2] and in experiment [3] were 75%, 75.1% and 82.1%, respectively. In addition, the Alpha signal in experiment [1] came out at 19000; in experiment [2] it was 20000; in experiment [3], 14100.

For the substance “scFv-Fc/Fc, A330M in scFv-Fc (Fc fusion)”, the % inhibition in experiment [1] stood at 27.1%; in experiment [2], 36.6%; in experiment [3] it was 26.2%. Moreover, the Alpha signal worked out at 55400 in experiment [1], 51000 in experiment [2] and 58000 in experiment [3].

Consider “scFv-Fc/Fc, no substitution (charge pair mutations only) (Fc fusion)”, for which the % inhibition in experiment [1], in experiment [2] and in experiment [3] was 0% each time. Moreover, the Alpha signal in experiment [1] came to 76000; in experiment [2], 80400; in experiment [3], 78600.

With “scFv-Fc/Fc, K334M in scFv-Fc (Fc fusion)”, the Alpha signal in experiment [1] worked out at 22300; in experiment [2] it was 19800; in experiment [3] it was 24400. The same substance gave a % inhibition in experiment [2] of 75.4%.

“scFv-Fc/Fc, R255N in dummy Fc (Fc fusion)”: the % inhibition was 37.4% in experiment [1], 39.6% in experiment [2] and 43.3% in experiment [3]. Further, the Alpha signal came to 47500 in experiment [1], 48500 in experiment [2] and 44500 in experiment [3].

For the substance “scFv-Fc/Fc, V302Q in dummy Fc (Fc fusion)”, the % inhibition in experiment [1] stood at 47%; in experiment [2], 55.3%; in experiment [3], 57.4%. The Alpha signal in experiment [1] was 40300; in experiment [2], 35900; in experiment [3] it was 33400.

As for “scFv-Fc/Fc, S239D in dummy Fc (Fc fusion)”, the % inhibition in experiment [1] stood at 91.9%; in experiment [2] it was 92.3%; in experiment [3], 87.4%. In addition, the values for the Alpha signal in experiment [1], in experiment [2] and in experiment [3] were 6120, 6160 and 9870, respectively.

Turning to “scFv-Fc/Fc, T256V in dummy Fc (Fc fusion)”, the % inhibition in experiment [1] stood at 59.9%; in experiment [2], 60.5%; in experiment [3], 63.3%. Moreover, the Alpha signal in experiment [1] stood at 30500; in experiment [2], 31800; in experiment [3], 28800.

“scFv-Fc/Fc, K246S in dummy Fc (Fc fusion)”: the % inhibition in experiment [1] turned out to be 40.6%; in experiment [2] it was 47.3%; in experiment [3], 51.8%. For the same substance, the values for the Alpha signal in experiment [1], in experiment [2] and in experiment [3] were 45100, 42400 and 37900, respectively.

With “scFv-Fc/Fc, I253K in scFv-Fc (Fc fusion)”, the % inhibition in experiment [1] came out at 24.5%; in experiment [2] it was 35.2%; in experiment [3], 34.7%. The Alpha signal in experiment [1] was 57400; in experiment [2], 52100; in experiment [3] it was 51300.

“scFv-Fc/Fc, N315A in scFv-Fc (Fc fusion)”: the % inhibition in experiment [1] was 68.7%; in experiment [3], 63.6%. For the same substance, the values for the Alpha signal in experiment [1], in experiment [2] and in experiment [3] were 23800, 19700 and 28600, respectively.

For the substance “scFv-Fc/Fc, Q311M in dummy Fc (Fc fusion)”, the % inhibition in experiment [1] came out at 82.7%; in experiment [2], 86.2%; in experiment [3] it was 87.5%. The Alpha signal in experiment [1] came to 13100; in experiment [2] it was 11100; in experiment [3], 9800.

Consider “scFv-Fc/Fc, L309S in scFv-Fc (Fc fusion)”, for which the figures for the % inhibition in experiment [1], in experiment [2] and in experiment [3] were 20.4%, 23.5% and 19.1%, respectively. The Alpha signal in experiment [1] was 60500; in experiment [2] it was 61500; in experiment [3], 63500.

Turning to “scFv-Fc/Fc, F243V in dummy Fc (Fc fusion)”, the % inhibition came to 49% in experiment [1], 60.1% in experiment [2] and 62.8% in experiment [3]. Further, the Alpha signal in experiment [1] is 38800; in experiment [2] it was 32100; in experiment [3], 29300.

Take “scFv-Fc/Fc, I332E in scFv-Fc (Fc fusion)”: the values for the % inhibition in experiment [1], in experiment [2] and in experiment [3] were 75.1%, 74.6% and 76.5%, respectively. Besides, the Alpha signal in experiment [1] is 18900; in experiment [2], 20400; in experiment [3], 18400.

As to “scFv-Fc/Fc, L234Y in scFv-Fc (Fc fusion)”, the % inhibition in experiment [1] came to 27.5%; in experiment [2], 42.9%; in experiment [3], 35.7%. In addition, the Alpha signal in experiment [1] turned out to be 55100; in experiment [2] it was 45900; in experiment [3], 50500.

Turning to “scFv-Fc/Fc, L309C in dummy Fc (Fc fusion)”, the % inhibition is 21.4% in experiment [1], 30.8% in experiment [2] and 21.4% in experiment [3]. Also, the Alpha signal was determined as 59700 in experiment [1], 55600 in experiment [2] and 61800 in experiment [3].

For “scFv-Fc/Fc, K288T in dummy Fc (Fc fusion)”, in experiment [1], the % inhibition was determined as 26.7%. Further, the Alpha signal in experiment [1] amounted to 55700; in experiment [2], 53100; in experiment [3], 50300.

In the case of “scFv-Fc/Fc, F243L in dummy Fc (Fc fusion)”, the results for the % inhibition in experiment [1], in experiment [2] and in experiment [3] were 72.9%, 77.4% and 76.1%, respectively. The Alpha signal in experiment [1] came out at 20600; in experiment [2], 18200; in experiment [3], 18800.

Take “scFv-Fc/Fc, K248L in dummy Fc (Fc fusion)”: the % inhibition came out at 67.5% in experiment [1], 71.3% in experiment [2] and 68.4% in experiment [3]. The Alpha signal in experiment [1] came to 24700; in experiment [2] it was 23100; in experiment [3], 24800.

Take “scFv-Fc/Fc, K246W in dummy Fc (Fc fusion)”: the % inhibition worked out at 20% in experiment [1], 29% in experiment [2] and 34.2% in experiment [3]. For the same substance, the Alpha signal in experiment [1] is 60800; in experiment [2], 57100; in experiment [3] it was 51700.

Consider “scFv-Fc/Fc, L309E in scFv-Fc (Fc fusion)”, for which the % inhibition in experiment [1] was found to be 67%; in experiment [2], 73.7%; in experiment [3], 67.6%. The substance also showed an Alpha signal in experiment [2] of 21100.

As for “scFv-Fc/Fc, K246V in dummy Fc (Fc fusion)”, the figures for the Alpha signal in experiment [1], in experiment [2] and in experiment [3] were 43800, 44500 and 42800, respectively.

For “scFv-Fc/Fc, H268K in scFv-Fc (from UniProt P0DOX5 218-449; P0DOX5 218-449) (Fc fusion)”, the % inhibition came to 20.2% in experiment [1], 22.6% in experiment [2] and 21.6% in experiment [3]. In addition, the Alpha signal in experiment [1] came to 60600; in experiment [2], 62200; in experiment [3] it was 61600.

Take “scFv-Fc/Fc, F243I in scFv-Fc (Fc fusion)”: the % inhibition in experiment [1] came out at 60.6%; in experiment [2], 73.1%; in experiment [3], 72.8%. Also, the Alpha signal came to 30000 in experiment [1], 21700 in experiment [2] and 21400 in experiment [3].

On to “scFv-Fc/Fc, E294L in dummy Fc (Fc fusion)”, for which the Alpha signal in experiment [1] is 30100; in experiment [2], 35400; in experiment [3], 32200.
